Experimental data published in patent US11434268B2, “Vascular endothelial growth factor antagonists” (The United States of America, as represented by the …, priority 2012, dated 2022).

T1: NRP1 (Homo sapiens, UniProt O14786)
T1 construct: purchased Sino Biologics
T1 sequence (O14786 22-644 isoform O14786-2 limits assumed): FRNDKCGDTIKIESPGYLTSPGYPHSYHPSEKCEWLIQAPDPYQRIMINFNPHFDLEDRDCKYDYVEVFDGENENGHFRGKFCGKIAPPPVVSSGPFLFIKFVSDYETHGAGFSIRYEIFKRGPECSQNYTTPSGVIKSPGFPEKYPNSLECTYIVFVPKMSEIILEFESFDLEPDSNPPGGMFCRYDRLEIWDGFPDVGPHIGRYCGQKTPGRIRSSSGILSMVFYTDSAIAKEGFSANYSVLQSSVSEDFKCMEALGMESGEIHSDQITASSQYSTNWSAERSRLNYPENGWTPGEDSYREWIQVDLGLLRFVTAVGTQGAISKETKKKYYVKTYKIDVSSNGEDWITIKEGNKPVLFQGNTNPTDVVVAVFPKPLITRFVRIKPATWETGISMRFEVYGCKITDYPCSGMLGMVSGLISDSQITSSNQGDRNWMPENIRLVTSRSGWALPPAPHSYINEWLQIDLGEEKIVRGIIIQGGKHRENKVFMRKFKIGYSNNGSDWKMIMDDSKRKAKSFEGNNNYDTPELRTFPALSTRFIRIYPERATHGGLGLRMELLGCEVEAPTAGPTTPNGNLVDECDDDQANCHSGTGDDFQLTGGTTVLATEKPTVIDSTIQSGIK

B1: VEGF165 3S: human VEGF165 with opposite charge substitutions R123E/R124E/R159E in the mature protein (protein, listed as Homo sapiens)
chain: APMAEGGGQNHHEVVKFMDVYQRSYCHPIETLVDIFQEYPDEIEYIFKPSCVPLMRCGGCCNDEGLECVPTEESNITMQIMRIKPHQGQHIGEMSFLQHNKCECRPKKDRARQENPCGPCSEEEKHLFVQDPQTCKCSCKNTDSRCKARQLELNERTCECDKPRR

Legend:
[1] = system: 293/KDR cells; experiment: Soft agar colony formation (anchorage independent growth) of 293/KDR cells; type: cell-based; conditions: for soft agar colony formation by transfectants: 293/KDR cells stably transfected with expression plasmid, FIG. 4F; for inhibition of soft agar colony formation of 293/KDR cells stably transfected with VEGF165 WT: 3S protein at 0.06, 0.15 and 0.6 nM, pazopanib every other day at 0.3 and 3.0 nM over two weeks, FIG. 5C
Procedure: (§1) For proliferation assays, 293/KDR derived cell lines were seeded in 6-well culture plates in quadruplicate. Cell number per well was measured at regular intervals removal of adherent cells and counting in a Cellometer Automatic Cell Counter (Nexcelom Bioscience). Assays for colony formation in soft agar were performed as described (Castagnino et al., 2000).
SoftAgar Colony Formation Assays for colony formation in soft agar (representative of anchorage independent growth) were performed and quantitated as described previously. Briefly, U87 MG cells and U87 MG cells transfected with a plasmid encoding NK1 60/62/73 were suspended in 0.5% Seaplaque agarose (1×10^5 cells) in growth medium in duplicate 60 mm dishes. Cell colonies were visualized after staining with p-iodotetrazolium violet by brightfield microscopy using an Olympus inverted microscope. Digital images were acquired and recorded using a CCD video camera and IP Lab software.

[2] = system: 293/KDR cells; experiment: KDR-driven tumorigenicity of 293/KDR transfectants implanted subcutaneously in mice; type: in vivo, SCID/Beige mice; conditions: 3×10^6 transfected 293/KDR cells per animal, subcutaneous, FIG. 5D
Source text: Additional control groups received the empty vector 293/KDR cells (3×10^6 per animal) or the empty vector cells combined with VEGF WT transfectants at 1.5×10^6 cells each. The latter group indicated the growth rate of tumors arising from 1.5×10^6 VEGF WT transfectants in the presence of “neutral” cells providing the same initial mass; a growth rate below this threshold in the group implanted with VEGF WT+VEGF 3S transfectants could be attributed to inhibition of VEGF WT-driven tumor growth by VEGF165 3S.
All experiments involving animals were performed in accordance with NIH Guidelines for Care and Use of Laboratory Animals using approved protocols. 293/KDR cells stably transfected with VEGF WT or 3S expression plasmids, or empty vector, were injected subcutaneously into SCID/Beige mice (Taconic, Inc.; 3×10^6 cells per animal total as indicated in the text, 5 mice/group) and tumor volumes were measured at regular intervals as described previously (Giubellino et al., 2007). Statistical analysis and curve fitting for all animal studies were performed using GraphPad Prism software version 5.0.
To test whether 3S VEGF could antagonize KDR-driven tumorigenicity in mice, groups of animals (n=5) were implanted subcutaneously with WT VEFG transfected 293/KDR cells (3×10^6 per animal), with the same number of 3S VEGF transfected cells, or with a suspension containing half the number of cells of each type. Additional control groups received the empty vector 293/KDR cells (3×10^6 per animal) or the empty vector cells combined with WT VEGF transfectants at 1.5×10^6 cells each. The latter group indicted the growth rate of tumors arising from 1.5×10^6 WT VEGF transfectants in the presence of “neutral” cells providing the same initial mass; a growth rate below this threshold in the group implanted with WT VEGF+3S VEGF transfectants could be attributed to inhibition by 3S VEGF. […]

[3] = system: 293/KDR cells; experiment: Proliferation of stably transfected 293/KDR cell lines in culture; type: cell-based; conditions: 293/KDR stable transfectants, days 3-5; p<0.001; FIG. 4E
Procedure: (§2) For proliferation assays, 293/KDR derived cell lines (5×10^4 cellsper well) were seeded in 6-well culture plates in quadruplicate. Cell number per well was measured after 2, 3, 4, and 5 days of growth by removing cells with trypsin, collecting via centrifugation and counting suspended cells in triplicate in a Cellometer Automatic Cell Counter (Nexcelom Bioscience, Lawrence, Mass.). Purified recombinant VEGF-A protein used as an external standard quantitation as VEGF mass per mass total extracted cell protein. KDR autophosphorylation in cell lysates was measured similarly; cultured cells were serum-deprived for 48 h, where noted cells were stimulated for 20 min with WT or 3S VEGF-A alone or in combination at the indicated concentrations, then extracted with ice cold buffer containing non-ionic detergent, protease and phosphatase inhibitors. Cleared extracts were applied to assay plates and processing per the manufacturer's instructions.
as §1

[4] = Heparin-Sepharose mediated clustering (covalent affinity crosslinking); type: binding; conditions: conditioned media with Heparin Sepharose, BS3 crosslinking; FIG. 8
Procedure: These findings further support the mechanism of action of VEGF 3S as antagonism of HS binding to the VEGF/VEGFR complex leading to instability of ligand/receptor/HS complexes and consequent disruption of downstream signaling.
Covalent Affinity Crosslinking: Assays. […] Heparin Sepharose beads were used as both a source of heparin and to efficiently capture heparin-clustered VEGF from the conditioned media after crosslinking. Samples were then incubated with or without BS3 at room temperature for 1 h. After pelleting the beads by brief centrifugation, samples were obtained from the supernatants for SDS-PAGE and immunoblot analysis. The beads were then washed by five centrifugation/resuspension cycles in PBS, and bound proteins were eluted with boiling SDS-PAGE sample buffer. Supernatant and bead-captured samples were then resolved by SDS-PAGE under reducing conditions, transferred to PVDF and immunodetected with anti-VEGF antibody.

[5] = biological target: T1, NRP1; experiment: Covalent affinity crosslinking analysis of NRP1 binding; conditions: NRP1-Fc, BS3 crosslinking, conditioned media; FIG. 10A
Procedure: Purified recombinant NRP1-Fc (Sino Biologics) was added as indicated (−NRP1 or +NRP1) to 24 h conditioned media from vector transfected 293/KDR cells(left lanes), 293/KDR/VEGF 3S transfectants (middle lanes), or 293/KDR/VEGF WT transfectants (right lanes) in the absence (−) or presence (+) of the crosslinking reagent BS3 (Thermo Fisher Pierce). Samples were resolved by SDS-PAGE under reducing conditions, transferred to PVDF and immunodetected with anti-Fc antibody (top panel; Thermo Fisher Pierce) or anti-VEGF (lower panels; R&D Systems). A 160 kDa band, consistent with a 1:1 complex of NRP1-Fc and VEGF dimer, was detected by both antibodies specifically in the presence of NRP1-Fc in media from 293/KDR/VEGF 3S transfectants and 293/KDR/VEGF WT transfectants but not the vector control. […] Dimeric VEGF (44 kDa) is captured from both 293/KDR/VEGF 3S media and 293/KDR/VEGF WT media only in the presence of BS3 in the reducing SDS-PAGE conditions used.

[6] = biological target: T2, KDR (Homo sapiens, UniProt P35968); experiment: Antagonism of VEGF165 WT-stimulated KDR autophosphorylation in 293/KDR cells; type: cell-based; conditions: VEGF165 10 ng/ml, serum-deprived 293/KDR cells; mock-immunodepleted conditioned media containing 2.5-fold molar excess VEGF 3S protein; FIG. 5B
T2 construct: host or cells: HEK293 (293/KDR)
Procedure: FIG. 5B. […] The x-axis indicates the concentration of VEGF165 3S protein (ng/ml) in the conditioned media prior to immunodepletion.
as §2, with “Cleared extracts were applied to assay plates and processing per the manufacturer's instructions.” left out
Since the conditioned media could contain other inhibitors of KDR activation, VEGF165 3S was selectively removed from the media by immunodepletion with anti-VEGF antibody. A mock-immunodepletion was performed in parallel using a non-specific antibody and the VEGF165 3S content of the anti-VEGF and mock-immunodepleted media was measured (FIG. 5A). […]

[7] = system: Akt activation in EA.hy 926 cells, which express VEGFR1 and R2; experiment: VEGF- or PlGF-induced Akt activation (phospho-Akt/total Akt) in EA.hy 926 cells; type: cell-based; conditions: FIG. 9A
Procedure: VEGF 3s blocked Akt activation by VEGF-A (dark circles) or P1GF (squares).
(§3) Thus the pattern of VEGF 3S inhibition followed the pattern of VEGF-A binding to VEGFR1 and R2, but not homodimers of VEGFR3, as anticipated. […] VEGF 3s blocked Akt activation by VEGF-A (dark circles) or P1GF (squares). […] SCC-25 cells express all three VEGFRs.
(§4) Immunoassays: KDR and VEGF content in cell lysates, tissue extracts and conditioned media was determined using 2-site electrochemiluminescent immunoassays developed for use with the Meso Scale Discovery (MSD) SectorImager 2400 plate reader (Gaithersburg, Md.). KDR activation in cell lysates or tumor tissue extracts included parallel detection with anti-receptor antibodies and specific anti-phospho-receptor antibodies or 4G10 (Millipore). Cell lysates were prepared similarly for analysis of activated (phospho-) Akt, and total Akt using immunoassays from MSD. All measurements were made on triplicate samples. GraphPad Prism software version 5.0 was used for all statistical analyses: protein content values determined by 2-site immunoassay were interpolated from standard curves by nonlinear regression analysis (4 parameter logistic equation); saturation and competitive binding curves were fit after determination of specific binding and assuming a one site binding model.

[8] = system: Akt activation in SCC-25 cells, which express VEGFR1, R2 and R3; experiment: VEGF-A- or VEGF-D-induced Akt activation in SCC-25 cells; type: cell-based; conditions: FIG. 9C
Procedure: SCC-25 cells express all three VEGFRs.
as §3, §4

[9] = biological target: T2, KDR; experiment: Basal KDR tyrosyl phosphorylation in stably transfected 293/KDR cells; type: cell-based; conditions: 293/KDR stable transfectants after 24 h serum deprivation; FIG. 4D
Procedure: KDR autophosphorylation in cell lysates or tumor tissue extracts was measured similarly but included parallel detection with anti-receptor antibodies and specific anti-phospho-receptor antibodies or 4G10 (Millipore). […]
KDR tyrosyl phosphorylation in each cell line was measured after 24 h of serum deprivation (FIG. 4D). […]
Immunoassays: KDR and VEGF content in cell lysates, tissue extracts and conditioned media was determined using 2-site electrochemiluminescent immunoassays developed for use with the Meso Scale Discovery (MSD) SectorImager 2400 plate reader (Gaithersburg, Md.). […] GraphPad Prism software version 5.0 was used for all statistical analyses: protein content values determined by 2-site immunoassay were interpolated from standard curves by nonlinear regression analysis (4 parameter logistic equation); saturation and competitive binding curves were fit after determination of specific binding and assuming a one site binding model.

T2 sequence (P35968 20-1356): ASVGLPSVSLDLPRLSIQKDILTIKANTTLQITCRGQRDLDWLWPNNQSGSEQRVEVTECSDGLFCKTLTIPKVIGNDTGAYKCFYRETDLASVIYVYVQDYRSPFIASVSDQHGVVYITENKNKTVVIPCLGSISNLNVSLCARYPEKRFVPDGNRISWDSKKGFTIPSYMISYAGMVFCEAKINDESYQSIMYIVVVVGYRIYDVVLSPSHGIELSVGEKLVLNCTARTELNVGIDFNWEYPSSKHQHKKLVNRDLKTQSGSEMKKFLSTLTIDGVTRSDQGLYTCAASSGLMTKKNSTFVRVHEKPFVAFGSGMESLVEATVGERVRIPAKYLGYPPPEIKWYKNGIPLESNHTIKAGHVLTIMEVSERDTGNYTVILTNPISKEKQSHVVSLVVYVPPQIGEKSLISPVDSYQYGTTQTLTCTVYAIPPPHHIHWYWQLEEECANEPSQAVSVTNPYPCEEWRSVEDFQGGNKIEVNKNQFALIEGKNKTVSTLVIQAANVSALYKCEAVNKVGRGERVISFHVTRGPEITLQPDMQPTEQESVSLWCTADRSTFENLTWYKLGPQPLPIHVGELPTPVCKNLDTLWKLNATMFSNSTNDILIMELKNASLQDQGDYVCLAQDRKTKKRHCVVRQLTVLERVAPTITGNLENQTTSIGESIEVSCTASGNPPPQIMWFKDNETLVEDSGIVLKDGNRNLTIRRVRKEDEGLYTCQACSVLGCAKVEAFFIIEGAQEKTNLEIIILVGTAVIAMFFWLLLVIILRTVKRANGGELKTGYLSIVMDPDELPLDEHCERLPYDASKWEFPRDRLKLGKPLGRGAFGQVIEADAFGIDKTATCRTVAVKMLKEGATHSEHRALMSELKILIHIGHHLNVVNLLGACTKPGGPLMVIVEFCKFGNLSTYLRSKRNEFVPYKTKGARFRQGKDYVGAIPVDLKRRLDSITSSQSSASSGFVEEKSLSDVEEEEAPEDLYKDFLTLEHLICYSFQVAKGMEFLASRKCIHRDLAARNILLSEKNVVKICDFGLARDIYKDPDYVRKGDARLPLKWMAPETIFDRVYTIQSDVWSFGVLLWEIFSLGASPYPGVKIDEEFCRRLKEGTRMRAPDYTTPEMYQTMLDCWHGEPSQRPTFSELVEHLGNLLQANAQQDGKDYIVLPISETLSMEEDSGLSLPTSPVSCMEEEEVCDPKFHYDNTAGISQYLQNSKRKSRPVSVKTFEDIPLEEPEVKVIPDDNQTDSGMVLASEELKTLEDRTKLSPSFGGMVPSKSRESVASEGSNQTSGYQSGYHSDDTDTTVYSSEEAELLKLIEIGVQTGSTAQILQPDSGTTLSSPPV

Molecule | soft agar colony formation by transfectants [1] | soft agar colony formation by transfectants ([1]; listed as WT VEGF165) | tumor formation by implanted transfectants [2] | cell proliferation rate in culture [3] | heparin-promoted clustering (oligomerization) [4] | binding to NRP1 in vitro [5] | inhibition of soft agar colony formation of 293/KDR cells stably transfected with VEGF165 WT [1] | inhibition of soft agar colony formation of 293/KDR cells stably transfected with VEGF165 WT ([1]; listed as 3S VEGF) | tumor formation by implanted transfectants ([2]; listed as 3S VEGF) | tumor formation by implanted transfectants ([2]; listed as VEGF 3S) | inhibition of KDR autophosphorylation stimulated by purified VEGF165 protein [6] | inhibition of PlGF-induced Akt activation (phospho-Akt/total Akt) [7] | inhibition of VEGF-A-induced Akt activation (phospho-Akt/total Akt) [7] | inhibition of PlGF-induced Akt activation (phospho-Akt/total Akt) ([7]; listed as VEGF 3s) | antagonism of Akt activation by VEGF-A ([8]; VEGF-A at 100 pM) | block of Akt activation induced by VEGF-D ([8]; VEGF-D at 1000 pM) | basal KDR phosphorylation level compared with empty vector transfectants [9]
VEGF165 WT: native mature human vascular endothelial growth factor A isoform of 165 amino acids | grew robustly | robust anchorage independent growth | formed tumors fastest | grew significantly faster | promoted clustering |  |  |  |  |  |  |  |  |  |  |  | 
B1 | grew modestly, if at all |  |  |  |  | bound similarly | significant, dose-dependent inhibition | substantial and dose-dependent inhibition | tumors grew most slowly | did not form tumors prior to study termination | > 80% | potency similar to pazopanib | blocked | blocked | antagonism | did not block | indistinguishable
